Experimental findings from US20240025949A1, “Beta-Arrestin Effectors and Compositions and Methods of Use Thereof” (Trevena, Inc., priority 2021, published 2024) are described below.

Where only a bound is given, the exact number is not on record here.

Experiment [1] concerns the target rat angiotensin 2 type 1 receptor (rat) (UniProt P25095). As to the kind of experiment: cell-based or functional assay.
Experiment [2] deals with human angiotensin 2 type 1 receptor (human) (UniProt P30556). Nature of the experiment: cell-based or functional assay.
Chain of human angiotensin 2 type 1 receptor (human) (P30556 whole entry): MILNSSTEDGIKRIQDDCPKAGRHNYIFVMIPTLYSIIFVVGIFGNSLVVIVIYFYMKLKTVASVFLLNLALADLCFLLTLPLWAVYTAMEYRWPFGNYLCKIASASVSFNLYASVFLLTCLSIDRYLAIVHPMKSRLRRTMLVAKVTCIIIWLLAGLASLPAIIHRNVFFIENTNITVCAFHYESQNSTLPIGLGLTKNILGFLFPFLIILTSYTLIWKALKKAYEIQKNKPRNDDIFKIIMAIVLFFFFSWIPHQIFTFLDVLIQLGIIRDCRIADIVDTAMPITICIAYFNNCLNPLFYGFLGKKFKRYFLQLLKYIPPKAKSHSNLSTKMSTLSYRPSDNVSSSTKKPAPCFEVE

Chain of rat angiotensin 2 type 1 receptor (rat) (P25095 whole entry): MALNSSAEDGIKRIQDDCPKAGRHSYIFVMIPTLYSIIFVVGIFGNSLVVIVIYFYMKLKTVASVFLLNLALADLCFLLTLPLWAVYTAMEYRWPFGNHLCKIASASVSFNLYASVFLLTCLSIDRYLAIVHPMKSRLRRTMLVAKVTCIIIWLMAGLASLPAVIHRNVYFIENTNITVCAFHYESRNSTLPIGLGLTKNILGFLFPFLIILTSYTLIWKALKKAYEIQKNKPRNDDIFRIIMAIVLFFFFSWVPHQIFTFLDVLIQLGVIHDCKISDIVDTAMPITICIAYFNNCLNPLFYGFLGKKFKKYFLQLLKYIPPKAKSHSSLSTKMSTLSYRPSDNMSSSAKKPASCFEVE

With “SEQ ID NO: 82 (NM-D-Ala-Arg-Val-Tyr-Ile-His-Pro-D-Ala-OH) (peptide)”, in experiment [1], the IP One EC50 is above 10000 nM, the b-arrestin2 EC50 stood at 130 nM and the b-arrestin2 Max amounted to 60.6%. In experiment [2], this molecule returned an IP One EC50 above 10000 nM, a b-arrestin2 EC50 of 320 nM and a b-arrestin2 Max of 38.3%.

In the case of “SEQ ID NO: 65 (N-Me-Asp-Arg-Val-Tyr-Phe-His-Pro-NH2) (peptide)”, in experiment [1], the IP One EC50 was above 10000 nM, the b-arrestin2 EC50 came to 2800 nM and the b-arrestin2 Max stood at 67.3%. Besides, in experiment [2], the IP One EC50 was above 10000 nM, the b-arrestin2 EC50 is 2000 nM and the b-arrestin2 Max is 37.8%.

Turning to “SEQ ID NO: 64 (Glu-Arg-Val-Tyr-Phe-His-Pro-NH2) (peptide)”, in experiment [1], the IP One EC50 is above 10000 nM, the b-arrestin2 EC50 was determined as 870 nM and the b-arrestin2 Max turned out to be 26.9%. Further, in experiment [2], the IP One EC50 is above 10000 nM, the b-arrestin2 EC50 was found to be 1200 nM and the b-arrestin2 Max worked out at 20.4%.

Consider “SEQ ID NO: 6 (Sar-Arg-Val-Gly-Val-His-Pro-Gly-NH2) (peptide)”, for which, in experiment [1], the IP One EC50 came out at 59 nM, the IP One Max worked out at 21.9% and the b-arrestin2 EC50 is above 10000 nM. In experiment [2], this molecule gave an IP One EC50 of 110 nM, an IP One Max of 14.1%, a b-arrestin2 EC50 of 920 nM and a b-arrestin2 Max of 12.1%.

In experiment [1], “SEQ ID NO: 27 (Sar-Arg-Val-Tyr-Ile-His-Pro-D-Ala-OH) (peptide)” had an IP One EC50 above 10000 nM, a b-arrestin2 EC50 of 16 nM and a b-arrestin2 Max of 84.2%.

In experiment [1], “SEQ ID NO: 2 (Sar-Arg-Val-Ile-Ile-His-Pro-Ile-NH2) (peptide)” registered an IP One EC50 of 360 nM and an IP One Max of 33.8%. Further, the b-arrestin2 Max in experiment [2] was 24.9%.

In experiment [1], “SEQ ID NO: 10 (Sar-Arg-Val-Tyr-Ile-His-Pro-Ala-NH2) (peptide)” gave an IP One Max of 13.3% and a b-arrestin2 Max of 60.3%.

As to “SEQ ID NO: 66 (N-Me-Glu-Arg-Val-Tyr-Phe-His-Pro-NH2) (peptide)”, in experiment [1], the IP One EC50 was above 10000 nM, the b-arrestin2 EC50 came out at 10000 nM and the b-arrestin2 Max was 58.5%. In experiment [2], this molecule came in with an IP One EC50 above 10000 nM, a b-arrestin2 EC50 of 6700 nM and a b-arrestin2 Max of 30.6%.

Consider “SEQ ID NO: 30 (Sar-Arg-Val-Tyr-OMTh-His-Pro-Ala-OH) (peptide)”, for which, in experiment [1], the IP One EC50 was above 10000 nM, the b-arrestin2 EC50 was found to be 8.2 nM and the b-arrestin2 Max was 80.4%. Besides, in experiment [2], the IP One EC50 is above 10000 nM, the b-arrestin2 EC50 came out at 9.2 nM and the b-arrestin2 Max worked out at 68.2%.

For the molecule “SEQ ID NO: 29 (Sar-Arg-Val-OMTyr-Ile-His-Pro-Ala-OH) (peptide)”, in experiment [1], the IP One EC50 is above 10000 nM, the b-arrestin2 EC50 is 200 nM and the b-arrestin2 Max turned out to be 64.8%. In experiment [2], this molecule came in with an IP One EC50 above 10000 nM, a b-arrestin2 EC50 of 590 nM and a b-arrestin2 Max of 43.3%.

Regarding “SEQ ID NO: 8 (Sar-Arg-Val-Tyr-Val-His-Pro-Ala-NH2) (peptide)”, in experiment [1], the IP One EC50 came out at 35 nM, the IP One Max turned out to be 11.3%, the b-arrestin2 EC50 worked out at 200 nM and the b-arrestin2 Max is 41.8%. In experiment [2], this molecule registered an IP One EC50 above 10000 nM, a b-arrestin2 EC50 of 210 nM and a b-arrestin2 Max of 36.9%.

For “SEQ ID NO: 3 (Sar-Arg-Val-Ile-Val-His-Pro-Ile-OH) (peptide)”, in experiment [1], the IP One EC50 came to 41 nM, the IP One Max came to 19.6%, the b-arrestin2 EC50 turned out to be 120 nM and the b-arrestin2 Max turned out to be 67.1%. In experiment [2], this molecule had an IP One EC50 above 10000 nM, a b-arrestin2 EC50 of 450 nM and a b-arrestin2 Max of 36.5%.

Take “SEQ ID NO: 5 (Sar-Arg-Val-Gly-Val-His-Pro-Gly-OH) (peptide)”: in experiment [1], the IP One EC50 was found to be 96 nM, the IP One Max is 24.8%, the b-arrestin2 EC50 was 1900 nM and the b-arrestin2 Max is 61.7%. In experiment [2], the IP One EC50 worked out at 65 nM, the IP One Max came to 18.1%, the b-arrestin2 EC50 was 1600 nM and the b-arrestin2 Max came to 39.4%.

In the case of “SEQ ID NO: 83 (Sar-Arg-Val-Tyr-NVA-His-Pro-D-Ala-OH) (peptide)”, in experiment [1], the IP One EC50 is above 10000 nM, the b-arrestin2 EC50 worked out at 50 nM and the b-arrestin2 Max was 70.2%. In addition, in experiment [2], the IP One EC50 is above 10000 nM, the b-arrestin2 EC50 came out at 200 nM and the b-arrestin2 Max amounted to 34.3%.

On to “SEQ ID NO: 32 (Me2G-Arg-Val-Tyr-Ile-His-Pro-Ala-OH) (peptide)”, for which, in experiment [1], the IP One EC50 worked out at 24 nM, the IP One Max worked out at 6.8%, the b-arrestin2 EC50 was determined as 43 nM and the b-arrestin2 Max worked out at 80.2%. Besides, in experiment [2], the b-arrestin2 EC50 was found to be 79 nM and the b-arrestin2 Max was 55.6%.

For the molecule “SEQ ID NO: 9 (Sar-Arg-Val-Tyr-Ile-His-Pro-Ala-OH) (peptide)”, in experiment [1], the IP One Max was found to be 9.5% and the b-arrestin2 Max came out at 74%.

Molecule “SEQ ID NO: 25 (Asp-Arg-Val-Tyr-Ile-His-Pro-Ala-OH) (peptide)” displayed an IP One Max in experiment [1] of 14.1%. In addition, the b-arrestin2 Max in experiment [1] was determined as 77%; in experiment [2] it was 57.9%.

In experiment [1], “SEQ ID NO: 44 (NMAla-Arg-Val-Tyr-Ile-His-Pro-D-Ala-OH) (peptide)” had an IP One EC50 of 8.2 nM, an IP One Max of 14.6%, a b-arrestin2 EC50 of 65 nM and a b-arrestin2 Max of 71.9%. In experiment [2], this molecule showed an IP One EC50 above 10000 nM, a b-arrestin2 EC50 of 80 nM and a b-arrestin2 Max of 47.3%.

In experiment [1], “SEQ ID NO: 84 (Sar-Arg-Val-Tyr-OMTh-His-Pro-D-Ala-OH) (peptide)” registered an IP One EC50 above 10000 nM, a b-arrestin2 EC50 of 16 nM and a b-arrestin2 Max of 80.6%. In experiment [2], the IP One EC50 is above 10000 nM, the b-arrestin2 EC50 came to 32 nM and the b-arrestin2 Max was 50.5%.

For RVYYHPA (N-terminal Sar; C-terminal acid) [SEQ ID NO: 19 (Sar-Arg-Val-Tyr-Tyr-His-Pro-Ala-OH)], in experiment [1], the IP One EC50 was above 10000 nM, the b-arrestin2 EC50 came out at 18 nM and the b-arrestin2 Max came out at 91.2%. In addition, in experiment [2], the IP One EC50 was above 10000 nM, the b-arrestin2 EC50 was determined as 31 nM and the b-arrestin2 Max stood at 67.9%.

In experiment [1], RVYYHPI (N-terminal Sar; C-terminal amide) [SEQ ID NO: 15 (Sar-Arg-Val-Tyr-Tyr-His-Pro-Ile-NH2)] returned an IP One EC50 of 77 nM, an IP One Max of 51.1%, a b-arrestin2 EC50 of 230 nM and a b-arrestin2 Max of 62.1%. In experiment [2], this molecule showed an IP One EC50 of 250 nM, an IP One Max of 19.3%, a b-arrestin2 EC50 of 820 nM and a b-arrestin2 Max of 44.3%.

Take RVYEHPI (N-terminal Sar; C-terminal acid) [SEQ ID NO: 16 (Sar-Arg-Val-Tyr-Glu-His-Pro-Ile-OH)]: in experiment [1], the IP One EC50 was 92 nM, the IP One Max worked out at 24.4%, the b-arrestin2 EC50 came out at 140 nM and the b-arrestin2 Max came to 76.9%. In experiment [2], this molecule yielded an IP One EC50 above 10000 nM, a b-arrestin2 EC50 of 880 nM and a b-arrestin2 Max of 56.9%.
